Measured values as given in IntAct's records for PubMed 33762578.

B1: E3 ubiquitin-protein ligase NEDD4 (Homo sapiens), P46934-3 (parent)
chain: MAQSLRLHFAARRSNTYPLSETSGDDLDSHVHMCFKRPTRISTSNVVQMKLTPRQTALAPLIKENVQSQERSSVPSSENVNKKSSCLQISLQPTRYSGYLQSSNVLADSDDASFTCILKDGIYSSAVVDNELNAVNDGHLVSSPAICSGSLSNFSTSDNGSYSSNGSDFGSCASITSGGSYTNSVISDSSSYTFPPSDDTFLGGNLPSDSTSNRSVPNRNTTPCEIFSRSTSTDPFVQDDLEHGLEIMKLPVSRNTKIPLKRYSSLVIFPRSPSTTRPTSPTSLCTLLSKGSYQTSHQFIISPSEIAHNEDGTSAKGFLSTAVNGLRLSKTICTPGEVRDIRPLHRKGSLQKKIVLSNNTPRQTVCEKSSEGYSCVSVHFTQRKAATLDCETTNGDCKPEMSEIKLNSDSEYIKLMHRTSACLPSSQNVDCQININGELERPHSQMNKNHGILRRSISLGGAYPNISCLSSLKHNCSKGGPSQLLIKFASGNEGKVDNLSRDSNRDCTNELSNSCKPGWVVLDQPDAACHLQQQQEPSPLPPGWEERQDILGRTYYVNHESRRTQWKRPTPQDNLTDAENGNIQLQAQRAFTTRRQISEETESVDNRESSENWEIIREDEATMYSNQAFPSPPPSSNLDVPTHLAEELNARLTIFGNSAVSQPASSSNHSSRRGSLQAYTFEEQPTLPVLLPTSSGLPPGWEEKQDERGRSYYVDHNSRTTTWTKPTVQATVETSQLTSSQSSAGPQSQASTSDSGQQVTQPSEIEQGFLPKGWEVRHAPNGRPFFIDHNTKTTTWEDPRLKIPAHLRGKTSLDTSNDLGPLPPGWEERTHTDGRIFYINHNIKRTQWEDPRLENVAITGPAVPYSRDYKRKYEFFRRKLKKQNDIPNKFEMKLRRATVLEDSYRRIMGVKRADFLKARLWIEFDGEKGLDYGGVAREWFFLISKEMFNPYYGLFEYSATDNYTLQINPNSGLCNEDHLSYFKFIGRVAGMAVYHGKLLDGFFIRPFYKMMLHKPITLHDMESVDSEYYNSLRWILENDPTELDLRFIIDEELFGQTHQHELKNGGSEIVVTNKNKKEYIYLVIQWRFVNRIQKQMAAFKEGFFELIPQDLIKIFDENELELLMCGLGDVDVNDWREHTKYKNGYSANHQVIQWFWKAVLMMDSEKRIRLLQFVTGTSRVPMNGFAELYGSNGPQSFTVEQWGTPEKLPRAHTCFNRLDLPPYESFEELWDKLQMAIENTQGFDGVD

Variants of: B1
Conditions: with spike_sars2 S

Variant | effect of a mutation on the interaction
I843R | increasing interaction strength
R877Q | increasing interaction strength
